The text below walks through data of US7141417 (THOMAS JEFFERSON UNIVERSITY, dated 2006).

The chains are these.
T1: glutathione S-transferase (GST) fused with full-length (67 kilodalton) Fez1 protein (human, UniProt Q9Y250 1-596)
T1 construct: Order GST then Fez1 follows the usual pGEX layout; also called GST-fused Fez1; GST-fused full-length 67 kDa Fez1; not shown: glutathione-S-transferase (GST) of the pGEX fusion expression vector (Pharmacia)
T1 sequence: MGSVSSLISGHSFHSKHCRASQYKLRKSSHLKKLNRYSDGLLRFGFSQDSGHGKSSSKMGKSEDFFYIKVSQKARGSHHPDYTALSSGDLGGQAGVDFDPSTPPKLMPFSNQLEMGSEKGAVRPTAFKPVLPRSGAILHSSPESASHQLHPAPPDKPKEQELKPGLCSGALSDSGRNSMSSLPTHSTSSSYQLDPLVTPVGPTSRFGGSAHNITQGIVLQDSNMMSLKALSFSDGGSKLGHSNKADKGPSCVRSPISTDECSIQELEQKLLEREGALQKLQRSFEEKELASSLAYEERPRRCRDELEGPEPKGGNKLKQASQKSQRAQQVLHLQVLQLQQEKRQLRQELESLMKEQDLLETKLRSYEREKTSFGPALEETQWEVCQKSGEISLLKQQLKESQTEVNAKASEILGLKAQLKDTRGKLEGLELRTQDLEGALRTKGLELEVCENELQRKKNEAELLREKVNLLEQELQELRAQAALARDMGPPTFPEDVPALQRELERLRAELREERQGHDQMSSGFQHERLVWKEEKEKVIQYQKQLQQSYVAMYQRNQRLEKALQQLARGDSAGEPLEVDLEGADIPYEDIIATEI

B1: ^35S-methionine-labeled in vitro translated full-length 67 kDa Fez1 (other)
chain: T1 sequence
modifications: ^35S-methionine label
notes: also called full-length (67 kDa) Fez1 protein
B2: EF1-γ(N), ^35S-methionine-labeled in vitro translated deletion mutant of EF1-γ (other)
chain: MAAGTLYTYPENWRAFKALIAAQYSGAQVRVLSAPPHFHFGQTNRTPEFLRKFPAGKVPAFEGDDGFCVFESNAIAYYVSNEELRGSTPEAAAQVVQWVSFADSDIVPPASTWVFPTLGIMHHNKQATENAKEEVRRILGLLDAYLKTRTFLV
modifications: ^35S-methionine label ; 35S-labelled methionine residues (radiolabel), written M
B3: GST fused with EF1-γ(N) (other, human, UniProt P26641 1-153, looked up)
chain: B2 chain
notes: not shown: glutathione S-transferase (GST)
B4: EF1-γ(M), ^35S-methionine-labeled in vitro translated deletion mutant of EF1-γ (other)
chain: GERVTLADITVVCTLLWLYKQVLEPSFRQAFPNTNRWFLTCINQPQFRAVLGEVKLCEKMAQFDAKKFAETQPKKDTPRKEKGSREEKQKPQAERKEEKKAAAPAPEEEMDECEQALAAEPKAKDPFAHLPKSTFVLDEFKRKYSNEDT
modifications: ^35S-methionine label ; 35S-labelled methionine residues (radiolabel), written M
B5: ^35S-methionine-labeled in vitro translated EF1-α (other, UniProt P68104 1-462, looked up)
chain: MGKEKTHINIVVIGHVDSGKSTTTGHLIYKCGGIDKRTIEKFEKEAAEMGKGSFKYAWVLDKLKAERERGITIDISLWKFETSKYYVTIIDAPGHRDFIKNMITGTSQADCAVLIVAAGVGEFEAGISKNGQTREHALLAYTLGVKQLIVGVNKMDSTEPPYSQKRYEEIVKEVSTYIKKIGYNPDTVAFVPISGWNGDNMLEPSANMPWFKGWKVTRKDGNASGTTLLEALDCILPPTRPTDKPLRLPLQDVYKIGGIGTVPVGRVETGVLKPGMVVTFAPVNVTTEVKSVEMHHEALSEALPGDNVGFNVKNVSVKDVRRGNVAGDSKNDPPMEAAGFTAQVIILNHPGQISAGYAPVLDCHTAHIACKFAELKEKIDRRSGKKLEDGPKFLKSGDAAIVDMVPGKPMCVESFSDYPPLGRFAVRDMRQTVAVGVIKAVDKKAAGAGKVTKSAQKAQKAK
modifications: ^35S-methionine label

Test [1] concerns the target T1, glutathione S-transferase (GST) fused …. As to the kind of experiment: in vitro binding of ^35S-labeled full-length Fez1 with GST-fused full-length Fez1, buffer B. As to the method: (§1) In vitro Transcription/Translation, GST-Fusion Protein and in vitro Binding Assay In vitro transcription and translation was performed using a commercially-available, rabbit reticulocyte-based system, (TNT™ T7 Quick Coupled Transcription/Translation System, Promega) by labeling with ^35S-methionine, according to supplier's instructions. GST-fusion proteins were isolated using a glutathione-agarose column (Pharmacia). Proteins were incubated in two binding buffers: buffer A (comprising 100 millimolar NaCl, 0.5% NP-40, 0.75 milligrams per milliliter bovine serum albumin (BSA), 20 millimolar Tris-HCl pH 8.0, and 1 millimolar EDTA) and buffer B (comprising 150 millimolar NaCl, 0.1% (v/v) Tween 20, 0.75 milligrams per milliliter BSA, 50 millimolar Tris-HCl pH 8.0, 5 millimolar EDTA, 10% (v/v) glycerol). After the glutathione-agarose beads had been pre-incubated in a 10% (w/v) BSA suspension, the beads were mixed with protein samples and washed 5 times, each wash comprising mixing the beads with 10 volumes of the binding buffer. After the beads had been washed, the bead-containing liquid was centrifuged to recover binding proteins. The samples were boiled for 3 minutes and then the proteins in the samples were separated by SDS-PAGE. The gel was dried and exposed to film for 4–24 hours at –80° C.
The amino acid sequence of Fez1 comprises a leucine-zipper-like region. […]

Test [2] shares this target. As to the kind of experiment: in vitro binding of ^35S-labeled deletion mutants with GST-fused Fez1. The procedure:
as §1

Test [3] addresses B1. As to the kind of experiment: in vitro binding assay (figure legend); by paragraph 373 the labeled partner was Fez1 and EF1-γ(N) was GST-fused. As to the method: as §1, with “C. […]” for “C.”
Test [4] has as its target T1, glutathione S-transferase (GST) fused …. As to the kind of experiment: in vitro binding of ^35S-methionine-labeled in vitro translated EFs to GST-fused Fez1, glutathione-agarose beads, SDS-PAGE. The procedure:
as §1

In the case of B1, the binding result in test [1] is recorded as “binds”.
For B2, in test [2], the binding result was “binds”.
On to B3, for which the binding result in test [3] is “binds”.
For the molecule B4, in test [2], the binding result was “no binding”.
For B5, the binding result in test [4] is reported as “no binding”.
